# Measured values as given in the RNAGym collection of RNA variant scans (doi:10.1101/gr.219683.116).
# B1: mRNA-splicing (parent)
# chain: AGUUGCUGCUGGGAGCUCCAGCACAGUGAAAUGGACAGAAGGGCAGAGCAA
# Variants of: B1
# Experiment: exon inclusion enrichment index; higher = more inclusion; WT1 exon 5 minigene, HEK293
row,Variant,exon inclusion enrichment index
1,AGUUUCUUUUGGGAGCUCCAGCACAGUGAAAUGGACAGAAGAACAGAGCAA [G5U G8U C9U G42A G43A],1.46
2,AGUUUCUUUUGGGAGCUCCAGCACAGUGAAAUGGACAGAAGGUAAGAGCAA [G5U G8U C9U G43U C44A],0.0152
3,AGUUUCUUUUGGGAGCUCCAGCACAGUGAAAUGGACAGAAGGUGAGAGCAA [G5U G8U C9U G43U C44G],0.112
4,AGUUUCUUUUGGGAGCUCCAGCACAGUGAAAUGGACAGAAGGUUAGAGCAA [G5U G8U C9U G43U C44U],0.0283
5,AGUUUCUUUUGGGAGCUCCAGCACAGUGAAAUGGACAGAAUAGCAGAGCAA [G5U G8U C9U G41U G42A],0.0453
6,AGUUUCUUUUGGGAGCUCCAGCACAGUGAAAUGGACAGAAUCGCAGAGCAA [G5U G8U C9U G41U G42C],0.47
7,AGUUUCUUUUGGGAGCUCCAGCACAGUGAAAUGGACAGAAUUGCAGAGCAA [G5U G8U C9U G41U G42U],0.11
8,AGUUUCUUUUGGGAGCUCCAGCACAGACAAAUGGACAGAAGGGCAGAGCAA [G5U G8U C9U U27A G28C],0.109
9,AGUUUCUUUUGGGAGCUCCAGCACAGAUAAAUGGACAGAAGGGCAGAGCAA [G5U G8U C9U U27A G28U],0.0328
10,AGUUUCUUUUGGGAGCUCCAGCACAGAAAAAUGGACAGAAGGGCAGAGCAA [G5U G8U C9U U27A G28A],0.173
11,AGUUUCUUUUGGGAGCUCCAGCACAGUGAAACGGACAGAAGGGCAGAGCAA [G5U G8U C9U U32C],0.344
12,AGUUUCUUUUGGGAGCUCCAGCACAGUGAAAGGGACAGAAGGGCAGAGCAA [G5U G8U C9U U32G],0.00207
13,AGUUUCUUUUGGGAGCUCCAGCACAGUGAAAAGGACAGAAGGGCAGAGCAA [G5U G8U C9U U32A],0.11
14,AGUUUCUUUUGGGAGCUCCAGCACAGUGAAAGCGACAGAAGGGCAGAGCAA [G5U G8U C9U U32G G33C],0.0926
15,AGUUUCUUUUGGGAGCUCCAGCACAGUGAAAGAGACAGAAGGGCAGAGCAA [G5U G8U C9U U32G G33A],0.0116
16,AGUUUCUUUUGGGAGCUCCAGCACAGUGAAAGUGACAGAAGGGCAGAGCAA [G5U G8U C9U U32G G33U],0.0291
17,AGUUUCUUUUGGGAGCGGCAGCACAGUGAAAUGGACAGAAGGGCAGAGCAA [G5U G8U C9U U17G C18G],0.13
18,AGUUUCUUUUGGGAGCGUCAGCACAGUGAAAUGGACAGAAGGGCAGAGCAA [G5U G8U C9U U17G C18U],0.0929
19,AGUUUCUUUUGGGAGCGACAGCACAGUGAAAUGGACAGAAGGGCAGAGCAA [G5U G8U C9U U17G C18A],0.124
20,AGUUUCUUUUGGGAGCUCCAGCACAGUGAAAUGGACAGAAAUGCAGAGCAA [G5U G8U C9U G41A G42U],0.115
21,AGUUUCUUUUGGGAGCUCCAGCACAGUGAAAUGGACAGAAGGGCAGAUCAA [G5U G8U C9U G48U],0.22
22,AGUUUCUUUUGGGAGCUCCAGCACAGUGAAAUGGACAGAAGGGCAGAACAA [G5U G8U C9U G48A],0.314
23,AGUUUCUUUUGGGAGCUCCAGCACAGUGAAAUGGACAGAAGGGCAGACCAA [G5U G8U C9U G48C],0.251
24,AGUUUCUUUUGGGAGCUCCAGCACAGUGAAAUGGACAGAAGGGCACAGCAA [G5U G8U C9U G46C],0.148
25,AGUUUCUUUUGGGAGCUCCAGCACAGUGAAAUGGACAGAAGGGCAAAGCAA [G5U G8U C9U G46A],0.192
26,AGUUUCUUUUGGGAGCUCCAGCACAGUGAAAUGGACAGAAGGGCAUAGCAA [G5U G8U C9U G46U],0.0708

row,Variant,exon inclusion enrichment index
1,AGUUUCUUUUGGGAGCUCCAGCACAGUGAAAUGGACAGAACAGCAGAGCAA [G5U G8U C9U G41C G42A],0.229
2,AGUUUCUUUUGGGAGCUCCAGCACAGUGAAAUGGACAGAACUGCAGAGCAA [G5U G8U C9U G41C G42U],0.643
3,AGUUUCUUUUGGGAGCUCCAGCACAGUGAAAUGGACAGAACCGCAGAGCAA [G5U G8U C9U G41C G42C],0.753
4,AGUUUCUUCCGGGAGCUCCAGCACAGUGAAAUGGACAGAAGGGCAGAGCAA [G5U G8U U10C],1.8
5,AGUUUCUUCGGGGAGCUCCAGCACAGUGAAAUGGACAGAAGGGCAGAGCAA [G5U G8U U10G],1.8
6,AGUUUCUUCAGGGAGCUCCAGCACAGUGAAAUGGACAGAAGGGCAGAGCAA [G5U G8U U10A],0.444
7,AGUUUCUUUUGGGAGCUCCAGCACAGUGAAAUGGACAGAAGUCCAGAGCAA [G5U G8U C9U G42U G43C],0.0971
8,AGUUUCUUUUGGGAGCUCCAGCACAGUGAAAUGGACAGAAGUACAGAGCAA [G5U G8U C9U G42U G43A],0.451
9,AGUUUCUUUUGGGAGCUCCAGCACAGUGAAAUGGACAGAAGUUCAGAGCAA [G5U G8U C9U G42U G43U],0.409
10,AGUUUCUUUUGGGAGCUCCAGCACAGUGAAAUGGACAGAAGGCUAGAGCAA [G5U G8U C9U G43C C44U],0.0876
11,AGUUUCUUUUGGGAGCUCCAGCACAGUGAAAUGGACAGAAGGCAAGAGCAA [G5U G8U C9U G43C C44A],0.722
12,AGUUUCUUUUGGGAGCUCCAGCACAGUGAAAUGGACAGAAGGCGAGAGCAA [G5U G8U C9U G43C C44G],1.3
13,AGUUUCAGAAGGGAGCUCCAGCACAGUGAAAUGGACAGAAGGGCAGAGCAA [G5U U7A C9A U10A],0.286
14,AGUUUCUUUCUGGAGCUCCAGCACAGUGAAAUGGACAGAAGGGCAGAGCAA [G5U G8U C9U U10C G11U],0.279
15,AGUUUCUUUCCGGAGCUCCAGCACAGUGAAAUGGACAGAAGGGCAGAGCAA [G5U G8U C9U U10C G11C],0.932
16,AGUUUCUUUCAGGAGCUCCAGCACAGUGAAAUGGACAGAAGGGCAGAGCAA [G5U G8U C9U U10C G11A],0.133
17,AGUUUCUUUUGGGAGCUCCAGCACAGGUAAAUGGACAGAAGGGCAGAGCAA [G5U G8U C9U U27G G28U],0.000678
18,AGUUUCUUUUGGGAGCUCCAGCACAGGCAAAUGGACAGAAGGGCAGAGCAA [G5U G8U C9U U27G G28C],0.027
19,AGUUUCUUUUGGGAGCUCCAGCACAGGAAAAUGGACAGAAGGGCAGAGCAA [G5U G8U C9U U27G G28A],0.148
20,AGUUUCUUUUGGGAGCUCCAGCACAGUGAAAACGACAGAAGGGCAGAGCAA [G5U G8U C9U U32A G33C],0.219
21,AGUUUCUUUUGGGAGCUCCAGCACAGUGAAAAAGACAGAAGGGCAGAGCAA [G5U G8U C9U U32A G33A],0.0443
22,AGUUUCUUUUGGGAGCUCCAGCACAGUGAAAAUGACAGAAGGGCAGAGCAA [G5U G8U C9U U32A G33U],0.0405
23,AGUUUCUUUUGGGAGCUCCAGCACAGUGAAAUGGACAGAAGGGCAUCGCAA [G5U G8U C9U G46U A47C],0.55
24,AGUUUCUUUUGGGAGCUCCAGCACAGUGAAAUGGACAGAAGGGCAUUGCAA [G5U G8U C9U G46U A47U],0.164
25,AGUUUCUUUUGGGAGCUCCAGCACAGUGAAAUGGACAGAAGGGCAUGGCAA [G5U G8U C9U G46U A47G],0.0739
